Data published in the supplement of paper PMC6757056.
± gives the standard deviation of the averaged measurements.

B1: library; a variant is named by its letters at N, in order (parent)
chain: GCUGUCACCGAGAAACUGUGAAGUAUAUCUUAAACCUGGGCACUUAAAAGAUAUAUGGAGUUAGUAGUGCAACCUGCUCGGUCUGAUGAGUCCNNNNNNGGACGAAACAGC

Experiments:
[1] = variants of: B1; assay: FACS-Seq fitted mean relative fluorescence mCherry/BFP without ligand (log10 relative fluorescence); HEK293T; ligand: cyclic di-GMP (c-di-GMP-II aptamer); higher = higher reporter protein expression; details: ligand present: no
Description: (§1)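 Hammerhead (sTRSV) ribozyme switch libraries with a ligand aptamer grafted on stem I and a randomized N4-6 loop II, cloned into the 3' UTR of mCherry and transiently transfected into HEK293T cells; RNA-Seq 72 h post transfection with ligand added 1 h before transfection; RNA read count / plasmid DNA read count normalized to the non-cleaving sTRSVctl (x100), log10; sequences with >100 DNA reads. FACS-Seq: lentiviral library sorted into 6 bins after 48 h ligand, log-normal fit mean of mCherry/BFP scaled to controls. Printed sequences are partial switch sequences.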

[2] = variants of: B1; assay: normalized RNA/DNA level without ligand (relative to sTRSVctl = 100) (log10 (% of sTRSVctl)); HEK293T; ligand: cyclic di-GMP (c-di-GMP-II aptamer); higher = less ribozyme self-cleavage, higher mRNA level; details: reporter: mCherry (pCS4076), ligand present: no
Description: as §1

[3] = variants of: B1; assay: FACS-Seq fitted mean relative fluorescence mCherry/BFP with ligand (log10 relative fluorescence); HEK293T; ligand: cyclic di-GMP (c-di-GMP-II aptamer); ligand concentration (+) FACS-Seq: 1 mM; higher = higher reporter protein expression; details: ligand present: yes
Description: as §1

[4] = variants of: B1; assay: normalized RNA/DNA level with ligand (relative to sTRSVctl = 100) (log10 (% of sTRSVctl)); HEK293T; ligand: cyclic di-GMP (c-di-GMP-II aptamer); ligand concentration (+) RNA-Seq: 1 mM; higher = less ribozyme self-cleavage, higher mRNA level; details: reporter: mCherry (pCS4076), ligand present: yes
Description: as §1

Variant | FACS-Seq fitted mean (log10) [1] | normalized RNA/DNA level without ligand (log10) [2] | FACS-Seq fitted mean (log10) [3] | normalized RNA/DNA level with ligand (log10) [4]
GCUGUCACCGAGAAACUGUGAAGUAUAUCUUAAACCUGGGCACUUAAAAGAUAUAUGGAGUUAGUAGUGCAACCUGCUCGGUCUGAUGAGUCCAAAUGUGGACGAAACAGC [AAAUGU] | -0.132 ± 0.022 | 1.54 ± 0.03 | 0.136 ± 0.093 | 1.78 ± 0.09
GCUGUCACCGAGAAACUGUGAAGUAUAUCUUAAACCUGGGCACUUAAAAGAUAUAUGGAGUUAGUAGUGCAACCUGCUCGGUCUGAUGAGUCCAAAUGAGGACGAAACAGC [AAAUGA] | -0.5596 ± 0.00088 | 1.43 ± 0.061 | -0.289 ± 0.037 | 1.62 ± 0.089
GCUGUCACCGAGAAACUGUGAAGUAUAUCUUAAACCUGGGCACUUAAAAGAUAUAUGGAGUUAGUAGUGCAACCUGCUCGGUCUGAUGAGUCCAAAUGCGGACGAAACAGC [AAAUGC] | -0.0259 ± 0.11 | 1.642 ± 0.01 | 0.294 ± 0.022 | 1.79 ± 0.09
GCUGUCACCGAGAAACUGUGAAGUAUAUCUUAAACCUGGGCACUUAAAAGAUAUAUGGAGUUAGUAGUGCAACCUGCUCGGUCUGAUGAGUCCUAAUCUGGACGAAACAGC [UAAUCU] | -0.884 ± 0.042 | 1.718 ± 0.0051 | -0.707 ± 0.054 | 1.85 ± 0.08
GCUGUCACCGAGAAACUGUGAAGUAUAUCUUAAACCUGGGCACUUAAAAGAUAUAUGGAGUUAGUAGUGCAACCUGCUCGGUCUGAUGAGUCCUAAUGCGGACGAAACAGC [UAAUGC] | -0.174 ± 0.058 | 1.69 ± 0.032 | -0.398 ± 0.12 | 1.84 ± 0.073
GCUGUCACCGAGAAACUGUGAAGUAUAUCUUAAACCUGGGCACUUAAAAGAUAUAUGGAGUUAGUAGUGCAACCUGCUCGGUCUGAUGAGUCCUAAUGAGGACGAAACAGC [UAAUGA] | -0.416 ± 0.019 | 1.597 ± 0.0061 | -0.112 ± 0.13 | 1.77 ± 0.086
GCUGUCACCGAGAAACUGUGAAGUAUAUCUUAAACCUGGGCACUUAAAAGAUAUAUGGAGUUAGUAGUGCAACCUGCUCGGUCUGAUGAGUCCAAAUUGGGACGAAACAGC [AAAUUG] | -0.199 ± 0.011 | 1.56 ± 0.096 | -0.00914 ± 0.051 | 1.72 ± 0.097
GCUGUCACCGAGAAACUGUGAAGUAUAUCUUAAACCUGGGCACUUAAAAGAUAUAUGGAGUUAGUAGUGCAACCUGCUCGGUCUGAUGAGUCCGAAUUGGGACGAAACAGC [GAAUUG] | -0.422 ± 0.012 | 1.57 ± 0.096 | -0.0224 ± 0.071 | 1.74 ± 0.11
GCUGUCACCGAGAAACUGUGAAGUAUAUCUUAAACCUGGGCACUUAAAAGAUAUAUGGAGUUAGUAGUGCAACCUGCUCGGUCUGAUGAGUCCCAAUGUGGACGAAACAGC [CAAUGU] | 0.349 ± 0.071 | 1.75 ± 0.019 | 0.4491 ± 0.001 | 1.87 ± 0.11
GCUGUCACCGAGAAACUGUGAAGUAUAUCUUAAACCUGGGCACUUAAAAGAUAUAUGGAGUUAGUAGUGCAACCUGCUCGGUCUGAUGAGUCCGAAUGCGGACGAAACAGC [GAAUGC] | 0.00373 ± 0.18 | 1.63 ± 0.013 | 0.31 ± 0.049 | 1.75 ± 0.12
GCUGUCACCGAGAAACUGUGAAGUAUAUCUUAAACCUGGGCACUUAAAAGAUAUAUGGAGUUAGUAGUGCAACCUGCUCGGUCUGAUGAGUCCGAAUGAGGACGAAACAGC [GAAUGA] | -0.606 ± 0.037 | 1.48 ± 0.06 | -0.296 ± 0.056 | 1.65 ± 0.16
GCUGUCACCGAGAAACUGUGAAGUAUAUCUUAAACCUGGGCACUUAAAAGAUAUAUGGAGUUAGUAGUGCAACCUGCUCGGUCUGAUGAGUCCGAAUGGGGACGAAACAGC [GAAUGG] | -0.119 ± 0.036 | 1.62 ± 0.041 | 0.0864 ± 0.016 | 1.75 ± 0.086
GCUGUCACCGAGAAACUGUGAAGUAUAUCUUAAACCUGGGCACUUAAAAGAUAUAUGGAGUUAGUAGUGCAACCUGCUCGGUCUGAUGAGUCCUAAUUUGGACGAAACAGC [UAAUUU] | -0.1701 ± 0.00076 | 1.688 ± 0.0068 | -0.0196 ± 0.026 | 1.87 ± 0.11
